Measured values: article PMC10073072

T1: SLC39A5^369–380 peptide, Q6ZMH5
T1 chain: GHQGHSHGHQGGY


What was measured:
METTL9^M6 R214A (human) = METTL9^M6 R214A (human) (UniProt Q9H1A3); assay: ITC; METTL9 protein and synthetic peptide; conditions and who was titrated not shown
[1] = biological target: T1, SLC39A5^369–380 peptide, Q6ZMH5; assay: ITC; conditions: chain shown with the change;; parent: 9.0 µM

Binder	fold weaker binding affinity than METTL9^M6 (METTL9^M6 R214A (human)) [fold]	Kd [1] [µM]
GHQGHSHGHQGGY [SLC39A5^369–380 peptide]	5	
METTL9^M6 (METTL9^46–318 with six mutations), Q9H1A3 R214A (protein) HMAAGGRKENHQWYVCNREKLCESLQAVFVQSYLDQGTQIFLNNSIEKSGWAAIQAYHSAVSSAFSLAMSRTSINGLLGRGSMFVFSPDQFQRLLKINPDWKTHRLLDLGAGDGEVTKIMSPHFEEIYATELSETMIWQLQKKKYRVLGINEWQNTGFQYDVISCLNLLDACDQPLTLLKDIRSVLEPTRGRVILALVLPFHPYVENVGGKWEKPSEILEIKGQNWEEQVNSLPEVFRKAGFVIEAFTRLPYLCEGDMYNDYYVLDDAVFVLKPV		51
